Data: article PMC6299077 (Nature Communications, 2018)

Target: the molecule itself
Assay: SEC; […] (~2.7–27 μM), […] (pH 4.4–5.6); […]

B1: tHN of BoNT/A1 (beltless translocation domain of botulinum neurotoxin A1, residues K547–K871) (domain or fragment)
chain: KYTMFHYLRAQEFEHGKSRIALTNSVNEALLNPSRVYTFFSSDYVKKVNKATEAAMFLGWVEQLVYDFTDETSEVSTTDKIADITIIIPYIGPALNIGNMLYKDDFVGALIFSGAVILLEFIPEIAIPVLGTFALVSYIANKVLTVQTIDNALSKRNEKWDEVYKYIVTNWLAKVNTQIDLIRKKMKEALENQAEATKAIINYQYNQYTEEEKNNINFNIDDLSSKLNESINKAMININKFLNQCSVSYLMNSMIPYGVKRLEDFDASLKDALLKYIYDNRGTLIGQVDRLKDKVNNTLSTDIPFQLSKYVDNQRLLSTFTEYIK
  binding result: binds
